Laboratory results: PMC11672316, “Identification of ANXA1 as a Novel Upstream Negative Regulator of Notch1 Function in AML” (Advanced Science, 2024)
Bridge positions count the residues as written; N and C are the ends. Ends that are not written are not given here. Peptide text beside a SMILES is read from it.

What was measured:
ANXA1 = molecular target: T1, ANXA1 (Homo sapiens, UniProt P04083); experiment: BLI analysis, NICD peptides to immobilized ANXA1; format: binding; settings: for Koff: Octet Red96, ANXA1 immobilized on SSA sensor, peptides in SD buffer
T1 construct: made in house; host or cells: E. coli BL21
T1 sequence (P04083 1-346): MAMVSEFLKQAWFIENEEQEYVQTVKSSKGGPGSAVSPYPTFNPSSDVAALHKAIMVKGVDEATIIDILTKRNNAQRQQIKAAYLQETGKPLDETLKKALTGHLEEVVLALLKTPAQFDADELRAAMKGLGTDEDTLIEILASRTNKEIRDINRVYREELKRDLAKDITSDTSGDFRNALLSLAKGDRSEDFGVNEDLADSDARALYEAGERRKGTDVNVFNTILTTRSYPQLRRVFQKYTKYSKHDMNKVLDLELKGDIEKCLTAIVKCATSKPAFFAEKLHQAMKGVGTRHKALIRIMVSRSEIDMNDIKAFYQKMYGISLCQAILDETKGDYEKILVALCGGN
Description: (§1) AlphaFold2 and ClusPro servers were used to dock NICD and ANXA1.^[ [35] ^] The predictions were tested by GST‐pull down assay, bio‐layer interferometry (BLI) analysis, and chemical cross‐linking coupled with mass spectrometry. Details of these procedures are described in Materials and Methods (Supporting Information).
(§2) For bio‐layer interferometry (BLI) analyses performed by Octet Red96 system (Sartorius), purified NICD protein was immobilized on SA sensor (Sartorius) after labeling with Sulfo-NHS-Biotin (EZ-Link) and dialysis. To determine binding kinetics, five concentrations of purified ANXA1 protein were prepared with PBST (PBS containing 0.02% Tween-20) and measured from low to high concentrations by NICD-immobilized biosensors to obtain the association and dissociation sensorgram data. For detection of the interaction between protein and small molecular peptides, purified ANXA1 protein was immobilized on SSA sensor (Sartorius) to detect the binding kinetics of NICD peptides, which were diluted in SD buffer (PBST plus 0.1% w v^-1 BSA). The kinetic parameters Kon, Koff and KD were determined using Octct data analysis software.

[1] = molecular target: intracellular domain of Notch1 (NICD), protein used in BLI and cross-linking; experiment: BLI; NICD with full-length ANXA1 or the C-terminal domain of ANXA1 at increasing concentrations; who was immobilised is not told in the main text (scheme in Figure 2D)
NICD = experiment: BLI analysis, ANXA1 proteins to immobilized NICD; format: binding, human; settings: for binding affinity with NICD: Figure 2E; for Koff / Kon / Kd: Octet Red96, biotinylated NICD immobilized on SA sensor; for Koff / Kon: ANXA1 protein in PBST; for Kd: five concentrations of ANXA1 protein in PBST (PBS containing 0.02% Tween-20)
Description: as §1, §2

[2] = molecular target: T2, GST-tagged full-length ANXA1 (Annexin A1) (human, UniProt P04083 1-346); experiment: BLI; Octet Red96; purified ANXA1 protein immobilised on SSA sensor; NICD peptides diluted in SD buffer (PBST plus 0.1% w/v BSA); settings: both partners purified
T2 construct: Annexin A1 (ANXA1), human, full length; In the BLI with peptides it was immobilised on an SSA sensor; also called GST-ANXA1; source: E. coli BL21, purified (GST resin)
T2 sequence (looked up): T1 sequence (P04083 1-346)

NICD (Δ2,050−2,060) = experiment: BLI analysis of ANXA1 binding NICD (Δ2,050−2,060); design: species or system human; settings: Figure S6E
Description: as §2
Figure S6. ANXA1 (214−228) and NICD (2,050−2,060) mediate the protein-protein interaction, related to Figure 2J. (A) mRNA expression of ANXA1 detected by qPCR in KG1a-sgANXA1 and HL60-sgANXA1 cells. […] (C) The cell proliferation ability detected by CCK8 assay after 96 hours of culture of KG1a or HL60 cells stably transfected with sgANXA1 or sgControl plasmids. (D) The cell proliferation ability detected by CCK8 assay after 96 hours of culture of KG1a-sgANXA1 and HL60-sgANXA1 cells transiently transfected with ANXA1 (Δ214−228) plasmid. […]

Notch1 = experiment: GST-pull down assay of Notch1 from KG1a cell lysate; format: binding, human; settings: western blotting, 4°C overnight; Figure S4C
Description: For GST-pull down assay, the purified GST fusion proteins were incubated with precleared GST resin (Solarbio) for 5 hours at 4°C. The precipitation was washed four times with PBS and captured the Notch1 protein from prepared cell lysates at 4°C overnight. The complexes were washed four times with PBS before being eluted in SDS-gel loading buffer and detected by western blotting.
Figure S4. GST pull down analysis of the interaction between ANXA1 and Notch1, related to Figure 2. (A) Schematic diagram of GST-tagged fusion protein structure of ANXA1 full-length, C-terminal, and N-terminal domain. (B) Coomassie blue-stained SDS gel image of GST-tagged fusion protein of full-length ANXA1, and N-terminal, and C-terminal domains of ANXA1. (C) Western blotting of Notch1 and ANXA1 expression in complexes pulled-down by GST-ANXA1 in sgANXA1#3 and sgControl cells of KG1a.

Molecule: KSALHWAAAVNNVDAAVVLLKNGANKDMQNNR [NICD-5l, linear peptide, NICD 2029~2060]
- inhibition of cell proliferation (KG1a cells; KG1a, CCK8, 72 h, Figure 2K, means ± s.e.m. of three independent experiments): significantly inhibited the proliferation of KG1a and HL60 cells in a dose‐dependent manner
- inhibition of cell proliferation (HL60 cells; HL60, CCK8, 72 h, Figure 2K, means ± s.e.m. of three independent experiments): significantly inhibited the proliferation of KG1a and HL60 cells in a dose‐dependent manner
- binding affinity with GST-ANXA1 (ANXA1; Figures 2I and S5B): increased the binding affinity with GST‐ANXA1 in a dose‐dependent manner
- Koff (ANXA1): 1.27×10^-2 1 s^-1

Molecule: RKKRRQRRR [TAT, reference compound]
- cell damage (KG1a cells): barely caused cell damage
- cell damage (HL60 cells): barely caused cell damage

Molecule: CSCC[C@H](NC(=O)[C@H](CC(=O)O)NC(=O)[C@H](CCCCN)NC(=O)[C@H](CC(N)=O)NC(=O)[C@H](C)NC(=O)CNC(=O)[C@H](CC(N)=O)NC(=O)[C@H](CCCCN)NC(=O)[C@H](CC(C)C)NC(=O)[C@@H]1CSSC[C@H](NC(=O)[C@H](C)NC(=O)[C@H](CO)NC(=O)[C@@H](N)CCCCN)C(=O)N[C@@H](Cc2c[nH]cn2)C(=O)N[C@@H](Cc2c[nH]c3ccccc23)C(=O)N[C@@H](C)C(=O)N[C@@H](C)C(=O)N[C@@H](C)C(=O)N[C@@H](C(C)C)C(=O)N[C@@H](CC(N)=O)C(=O)N[C@@H](CC(N)=O)C(=O)N[C@@H](C(C)C)C(=O)N[C@@H](CC(=O)O)C(=O)N[C@@H](C)C(=O)N[C@@H](C)C(=O)N[C@@H](C(C)C)C(=O)N[C@@H](C(C)C)C(=O)N1)C(=O)N[C@@H](CCC(N)=O)C(=O)N[C@@H](CC(N)=O)C(=O)N[C@@H](CC(N)=O)C(=O)N[C@@H](CCCNC(=N)N)C(=O)O [NICD-5c] (H-KSACHWAAAVNNVDAAVVCLKNGANKDMQNNR-OH; disulfide 4-19)
- Koff (ANXA1): 1.08×10^-2 1 s^-1

B1: GST-tagged C-terminal domain of ANXA1 (domain or fragment)
chain: PSSDVAALHKAIMVKGVDEATIIDILTKRNNAQRQQIKAAYLQETGKPLDETLKKALTGHLEEVVLALLKTPAQFDADELRAAMKGLGTDEDTLIEILASRTNKEIRDINRVYREELKRDLAKDITSDTSGDFRNALLSLAKGDRSEDFGVNEDLADSDARALYEAGERRKGTDVNVFNTILTTRSYPQLRRVFQKYTKYSKHDMNKVLDLELKGDIEKCLTAIVKCATSKPAFFAEKLHQAMKGVGTRHKALIRIMVSRSEIDMNDIKAFYQKMYGISLCQAILDETKGDYEKILVALCG
- Kd [1]: 5.32 µM
- binding affinity with NICD (NICD): dose‐dependently increased the binding affinity with NICD
- Koff (NICD): 1.68×10^-2 1 s^-1
- Kon (NICD): 3.15×10^3 1 Ms^-1
- Kd (NICD): 5.32 µM

B2: NICD-5l peptide (peptide)
peptide: KSALHWAAAVNNVDAAVVLLKNGANKDMQNNR
notes: also called NICD-5 linear peptide; source: synthetic peptide (solid phase, Wang resin)
- Kd [2]: 154 µM

B3: NICD-5c peptide (peptide)
peptide: KSACHWAAAVNNVDAAVVCLKNGANKDMQNNR-OH
modifications: bridge 4-19; also: cyclisation chemistry not given here
notes: also called NICD-5 cyclic peptide; source: synthetic peptide (solid phase, Wang resin)
- Kd [2]: 223 µM

B4: GST-tagged full-length Annexin A1 (ANXA1) (natural protein)
chain: T1 sequence (P04083 1-346)
- Kd [1]: 18.4 µM

B5: ANXA1: Annexin A1, Ca2+-dependent phospholipid-binding protein (protein)
chain: T1 sequence (P04083 1-346)
modifications: left off: GST, end not stated, kept
- interaction with NICD lacking 2050–2060 (NICD (Δ2,050−2,060)): the interaction between NICD and ANXA1 was also lost due to the deletion of 2050–2060 amino acid domain of NICD

B6: GST-tagged ANXA1: GST-tagged fusion protein of full-length ANXA1 (protein)
chain: T1 sequence (P04083 1-346)
modifications: left off: GST, end not stated, kept
- pull-down of Notch1 from cell lysate (Notch1): Notch1 in the cell lysate could be pulled down by GST‐tagged ANXA1

B7: Full-length ANXA1: purified full-length Annexin A1 protein (protein)
chain: T1 sequence (P04083 1-346)
modifications: left off: GST, end not stated, kept
notes: purified full-length Annexin A1 protein
- binding affinity with NICD (NICD): dose‐dependently increased the binding affinity with NICD
- Koff (NICD): 2.88×10^-2 1 s^-1
- Kon (NICD): 1.57×10^3 1 Ms^-1
- Kd (NICD): 18.4 µM
